± gives the uncertainty stated by the source.
B1: Glucocorticoid receptor, residues 419 to 494; numbered along this chain, P04150 (parent)
chain: KLCLVCSDEASGCHYGVLTCGSCKVFFKRAVEGQHNYLCAGRNDCIIDKIRRKNCPACRYRKCLQAGMNLEARKTK

Variants of: B1
Assay: abundance fitness (aPCA) (normalised: wild type 0, dead -1); higher = more abundant; growth selection in yeast, the domain comes from the species named
Details: Homo sapiens

Abundance fitness, by site and new letter:
S22: F 0.043 ± 0.11 | D 0.136 ± 0.3 | P -0.06 ± 0.38
R29: G -0.057 ± 0.034 | W -0.095 ± 0.046 | N -0.007 ± 0.083 | F -0.152 ± 0.076 | D 0.02 ± 0.072 | T -0.029 ± 0.056 | L -0.017 ± 0.034 | S -0.056 ± 0.039 | A -0.024 ± 0.042 | H -0.071 ± 0.075 | I 0.018 ± 0.064 | K 0.03 ± 0.059 | C -0.077 ± 0.07 | Q -0.072 ± 0.045 | M -0.113 ± 0.046 | E 0.033 ± 0.05 | Y -0.072 ± 0.1
C39: G -0.716 ± 0.059 | F -0.603 ± 0.16 | I -1 ± 0.3 | D -0.863 ± 0.17 | T -0.553 ± 0.21 | H -0.575 ± 0.27 | S -0.927 ± 0.12 | P -0.585 ± 0.11 | L -0.923 ± 0.1 | N -0.603 ± 0.2 | V -1 ± 0.13 | E -0.641 ± 0.078 | M -0.998 ± 0.18 | K -0.787 ± 0.13 | Q -0.586 ± 0.11 | R -0.976 ± 0.1
V25: R 0.085 ± 0.044 | A 0.045 ± 0.056 | I 0.021 ± 0.075 | S -0.017 ± 0.05 | C 0.043 ± 0.063 | E 0.051 ± 0.076 | N -0.081 ± 0.09 | H 0.06 ± 0.069 | Q 0.015 ± 0.087 | P -0.614 ± 0.13 | T -0.019 ± 0.062 | W -0.039 ± 0.062 | F -0.005 ± 0.064 | M -0.094 ± 0.067 | G 0.008 ± 0.054 | Y -0.129 ± 0.098 | D 0.017 ± 0.086
G21: E 0.076 ± 0.042 | R -0.086 ± 0.033 | Q 0.13 ± 0.055 | L -0.037 ± 0.037 | T -0.031 ± 0.046 | S -0.023 ± 0.04 | Y -0.031 ± 0.077 | I -0.088 ± 0.099 | M -0.032 ± 0.05 | H -0.122 ± 0.072 | K 0.008 ± 0.045 | C -0.064 ± 0.06 | N -0.15 ± 0.09 | P -0.008 ± 0.056 | D -0.009 ± 0.062
T19: V -0.011 ± 0.035 | I -0.057 ± 0.07 | Y -0.697 ± 0.22 | A -0.031 ± 0.038 | W -0.743 ± 0.11 | M -0.176 ± 0.059 | G -0.393 ± 0.044 | N -0.557 ± 0.14 | P -0.791 ± 0.13 | R -0.929 ± 0.099 | E -1.03 ± 0.19 | S 0.034 ± 0.039 | H -0.311 ± 0.1 | L -0.184 ± 0.037 | Q -0.559 ± 0.067 | C 0.061 ± 0.053 | D -0.909 ± 0.31
Q34: C -0.028 ± 0.078 | D -0.046 ± 0.074 | E -0.051 ± 0.051 | T -0.064 ± 0.045 | V -0.073 ± 0.039 | F -0.256 ± 0.12 | P -0.114 ± 0.051 | L -0.099 ± 0.04 | K -0.035 ± 0.046 | H -0.14 ± 0.098 | Y -0.136 ± 0.095 | W -0.136 ± 0.046 | M 0.017 ± 0.043 | R 0.002 ± 0.032 | A -0.016 ± 0.038 | N 0.08 ± 0.087 | I -0.188 ± 0.093
A30: P -0.907 ± 0.19 | F -0.142 ± 0.099 | N -0.283 ± 0.098 | H -0.292 ± 0.09 | W -0.183 ± 0.042 | R -0.457 ± 0.045 | L -0.32 ± 0.043 | I -0.071 ± 0.083 | M 0.051 ± 0.053 | K -0.165 ± 0.062 | S -0.08 ± 0.042 | Q -0.192 ± 0.049 | V 0.026 ± 0.037 | E -0.142 ± 0.043 | D -0.701 ± 0.2 | G -0.274 ± 0.038 | T -0.064 ± 0.05 | Y -0.102 ± 0.1
N36: A -0.012 ± 0.036 | Y -0.259 ± 0.13 | K 0.038 ± 0.049 | P -0.05 ± 0.047 | D -0.065 ± 0.092 | E 0.002 ± 0.042 | W -0.151 ± 0.045 | Q -0.034 ± 0.056 | S 0.022 ± 0.038 | T -0.008 ± 0.046 | I -0.054 ± 0.078 | M 0.008 ± 0.046 | G -0.057 ± 0.032 | H -0.042 ± 0.067 | L -0.036 ± 0.036 | V -0.106 ± 0.039 | F -0.006 ± 0.084 | C -0.133 ± 0.066
F27: E -1.01 ± 0.16 | G -0.929 ± 0.089 | K -0.951 ± 0.2 | A -0.25 ± 0.038 | C -0.518 ± 0.11 | V -0.386 ± 0.041 | N -0.722 ± 0.25 | I -0.26 ± 0.08 | Q -0.896 ± 0.14 | D -0.912 ± 0.18 | M -0.144 ± 0.052 | R -0.678 ± 0.053 | Y 0 ± 0.073 | W -0.071 ± 0.038 | P -0.695 ± 0.15 | S -0.681 ± 0.079
L18: Y 0.098 ± 0.086 | T -0.031 ± 0.058 | W -0.01 ± 0.047 | S 0.038 ± 0.05 | R -0.036 ± 0.036 | V 0 ± 0.041
G33: E -0.039 ± 0.052 | C -0.176 ± 0.065 | M -0.052 ± 0.049 | K 0.034 ± 0.06 | R -0.048 ± 0.03 | L -0.093 ± 0.035 | Q -0.017 ± 0.048 | V -0.044 ± 0.034 | W -0.135 ± 0.038 | F -0.052 ± 0.083 | H -0.006 ± 0.067 | D 0.05 ± 0.066 | S -0.045 ± 0.04 | N 0.115 ± 0.1 | A -0.063 ± 0.037 | I -0.121 ± 0.095 | Y 0.035 ± 0.065 | T -0.139 ± 0.055 | P -0.265 ± 0.059
L38: P -0.155 ± 0.047 | T -0.035 ± 0.049 | G -0.059 ± 0.029 | H 0.035 ± 0.08 | D 0.102 ± 0.063 | Q -0.024 ± 0.04 | I -0.043 ± 0.073 | A 0.01 ± 0.034 | V 0.058 ± 0.031 | S -0.035 ± 0.041 | E 0.012 ± 0.036 | M 0.02 ± 0.049 | F 0.018 ± 0.08 | Y -0.035 ± 0.077 | C -0.03 ± 0.056 | K 0.033 ± 0.047 | N 0.02 ± 0.072
F26: A -0.877 ± 0.099 | E -0.891 ± 0.12 | S -0.703 ± 0.076 | P -0.872 ± 0.15 | V -0.738 ± 0.084 | Y -0.36 ± 0.12 | Q -0.858 ± 0.17 | H -0.513 ± 0.16 | K -0.929 ± 0.14 | W -0.462 ± 0.065 | L -0.655 ± 0.075 | N -0.714 ± 0.28 | G -1 ± 0.11 | R -0.758 ± 0.071 | M -0.793 ± 0.14 | T -1.06 ± 0.18 | D -1.01 ± 0.26 | C -0.636 ± 0.17
K28: R -0.034 ± 0.033 | A -0.056 ± 0.036 | H -0.001 ± 0.065 | N -0.063 ± 0.058 | D -0.061 ± 0.069 | Y 0.001 ± 0.069 | F -0.086 ± 0.086 | E 0.007 ± 0.047 | G -0.051 ± 0.031 | I -0.064 ± 0.078 | P -0.243 ± 0.047 | Q 0.014 ± 0.056 | L -0.022 ± 0.036 | T 0.001 ± 0.042 | M -0.002 ± 0.049 | S -0.068 ± 0.044 | C -0.121 ± 0.069
K24: T -0.096 ± 0.059 | D -0.006 ± 0.087 | Q 0.044 ± 0.06 | Y 0.017 ± 0.06 | E 0.011 ± 0.079 | A -0.019 ± 0.05 | M -0.087 ± 0.077 | W -0.037 ± 0.089 | S 0.062 ± 0.055 | V 0.015 ± 0.059 | C 0.011 ± 0.065 | G -0.018 ± 0.051 | N -0.028 ± 0.061 | P -0.096 ± 0.072 | R -0.105 ± 0.054 | L -0.134 ± 0.045 | F -0.092 ± 0.066 | I -0.245 ± 0.072 | H -0.026 ± 0.069
H35: P 0.003 ± 0.046 | D 0.005 ± 0.066 | V -0.027 ± 0.033 | L -0.025 ± 0.034 | A 0.018 ± 0.04 | I -0.071 ± 0.072 | F 0.013 ± 0.078 | Y -0.08 ± 0.09 | K -0.002 ± 0.054 | W -0.074 ± 0.039 | G 0.024 ± 0.032 | M 0.018 ± 0.047 | S -0.114 ± 0.04 | N 0.11 ± 0.08 | R -0.044 ± 0.033 | C -0.128 ± 0.065 | Q -0.044 ± 0.048
C20: L -1.14 ± 0.17 | I -1.11 ± 0.49 | M -0.651 ± 0.13 | H -0.918 ± 0.31 | V -1.11 ± 0.2 | G -0.805 ± 0.12 | S -1.4 ± 0.35 | W -0.78 ± 0.11 | K -0.948 ± 0.17 | P -0.594 ± 0.12 | Y -0.782 ± 0.23 | A -0.837 ± 0.12 | N -0.75 ± 0.26 | T -0.87 ± 0.17 | Q -1.04 ± 0.2 | F -0.717 ± 0.32
C23: R -0.056 ± 0.36
E32: S -0.049 ± 0.034 | Y -0.131 ± 0.065 | V -0.051 ± 0.036 | C -0.031 ± 0.056 | N -0.059 ± 0.059 | H -0.058 ± 0.073 | D -0.015 ± 0.07 | L -0.073 ± 0.032 | K 0.01 ± 0.049 | W -0.201 ± 0.046 | G -0.04 ± 0.036 | P -0.388 ± 0.073 | F -0.192 ± 0.074 | R -0.021 ± 0.032 | Q -0.08 ± 0.046 | A -0.166 ± 0.041 | T -0.007 ± 0.041
V31: C -0.016 ± 0.054 | I 0.037 ± 0.051 | G -0.036 ± 0.035 | F -0.007 ± 0.058 | Q -0.017 ± 0.048 | W -0.07 ± 0.044 | E -0.052 ± 0.046 | K -0.078 ± 0.056 | A -0.031 ± 0.039 | P -0.567 ± 0.1 | L -0.036 ± 0.033 | R -0.007 ± 0.028 | N -0.104 ± 0.082 | D -0.219 ± 0.084 | M -0.042 ± 0.049 | Y -0.034 ± 0.081 | S 0.037 ± 0.037
Y37: E -0.107 ± 0.052 | I -0.08 ± 0.093 | Q -0.137 ± 0.13 | T -0.084 ± 0.052 | L -0.003 ± 0.04 | D -0.144 ± 0.068 | H -0.117 ± 0.088 | P -0.104 ± 0.054 | K -0.122 ± 0.061 | M 0.013 ± 0.062 | R -0.211 ± 0.044 | C -0.299 ± 0.12 | F 0.011 ± 0.07 | N -0.026 ± 0.066 | G -0.074 ± 0.04 | V -0.116 ± 0.043
